Assay results from patent US5876691A, “Antibody against carcionembryonic antigen (CEA)” (Cancer Research Campaign Technology Limited, priority 1993, dated 1999).

Experiments:
CEA [1] = molecular target: T1, CEA (Homo sapiens, UniProt P06731); experiment: Retention of antigen binding on storage (CEA affinity column, specific activity); parameters: CEA was obtained from a patient's colorectal tumour liver metastasis by extraction using perchloric acid; from tissue; host or cells: patient's colorectal tumour liver metastasis, perchloric acid extract
T1 sequence (P06731 35-702): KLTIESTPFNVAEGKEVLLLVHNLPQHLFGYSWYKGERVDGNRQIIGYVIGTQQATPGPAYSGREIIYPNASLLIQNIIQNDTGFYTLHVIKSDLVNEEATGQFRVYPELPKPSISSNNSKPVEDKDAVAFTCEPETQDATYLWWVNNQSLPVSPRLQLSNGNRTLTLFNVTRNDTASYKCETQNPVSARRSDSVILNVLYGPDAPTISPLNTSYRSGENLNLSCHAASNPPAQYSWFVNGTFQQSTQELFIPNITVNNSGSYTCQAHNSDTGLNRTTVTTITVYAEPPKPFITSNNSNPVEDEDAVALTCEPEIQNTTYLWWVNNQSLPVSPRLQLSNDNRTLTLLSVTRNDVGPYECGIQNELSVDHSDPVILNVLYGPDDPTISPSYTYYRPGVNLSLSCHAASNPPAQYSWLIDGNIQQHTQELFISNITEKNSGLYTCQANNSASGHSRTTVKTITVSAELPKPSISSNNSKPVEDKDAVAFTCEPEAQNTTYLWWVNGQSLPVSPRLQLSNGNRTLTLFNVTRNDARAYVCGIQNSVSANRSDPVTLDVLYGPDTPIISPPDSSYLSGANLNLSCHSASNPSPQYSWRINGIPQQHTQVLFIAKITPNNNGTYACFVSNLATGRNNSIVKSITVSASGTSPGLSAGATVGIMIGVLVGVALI
Method: 2 liters of MFE-23 His which had been concentrated and dialysed in PBS (400 ml) was purified using a 6 ml cyanogen bromide activated Sepharose 4B (Pharmacia Biotech.) affinity column coupled to CEA (8 mg). CEA was obtained from a patient's colorectal tumour liver metastasis by extraction using perchloric acid^34. One column pass of 30 ml supernatant per run was performed.
(§1) Samples at each purification stage were analysed for endotoxin levels using Limulus ameobocyte lysate (LAL) gel clot vials (Atlas bioscan. Bognor Regis, UK) according to the manufacturers' recommended instructions; a further aliquot (three times the patient dose) was tested by injection into rabbits (Safepharm Laboratories; Derby, UK) Bacterial supernatant containing MFE-23 His, semipurified MFE-23 His and the final product were tested for the presence of bacterial DNA using the Digoxigenin (DIG) DNA labelling and detection assay (Boeringer Mannheim, Lewes, UK). A probe was constructed using a mixture of equal proportions of MFE-23 plasmid DNA and total bacterial DNA. DIG labelled DNA probes were detected after hybridisation. to target samples by enzyme-linked immunoassay using an anti-DIG alkaline phosphatase conjugate. The probe was sensitive to 12 pg of DNA. The final product was also assayed for Cu^2+ content and compared with earlier purification stages, using flame photometry (Trace Element laboratory-University of Surrey). An aliquot was also protein sequenced using amino acid analysis by the CRC protein sequencing facility (University college of London) to confirm homogeneity of the final product and cleavage of the pelB leader sequence in the periplasm. Stability of the antibody was assessed by storing aliquots at 4° C. and -70° C. and subsequently analysing samples at certain time intervals using a Superose 12 HR 10/30 (Pharmacia) FPLC column. Retention of antigen binding following 6 months storage at 4° C. was measured by applying a known amount of purified antibody to the CEA affinity column (refer to section 2.7) and quantitating the % bound (specific activity). These values were compared by applying a known amount of MFE-23 His previously purified using the same column.

[2] = Pyrogen test by injection into rabbits; type: in vivo; details: final product, three times the patient dose
Method: as §1, with “The final product was also assayed for Cu^2+ content and compared with earlier purification stages, using flame photometry (Trace Element laboratory-University of Surrey). An aliquot was also protein sequenced using amino acid analysis by the CRC protein sequencing facility (University college of London) to confirm homogeneity of the final product and cleavage of the pelB leader sequence in the periplasm.” left out, “These values were compared by applying a known amount of MFE-23 His previously purified using the same column.” left out

CEA [3] = molecular target: T1, CEA; experiment: CEA binding of radiolabelled product on CEA/Sepharose column
Method: 75 μg of A5-SC and MFE-23 were iodinated with 0.5 mCi of 125-I using the Chloramine T/L-Tyrosine method^20. […] The stability of the radiolabelled products was tested by gel filtration on S-100.
MFE-cys was radiolabelled with ^99m Tc using a ^99m Tc-D-glucarate transfer method^22. 1 ml of ^99m Tc sodium pertechnetate (40.5 mCi) was added to 12.5 mg of monopotassium D-glucarate, 16.8 mg of sodium bicarbonate and 100 μg of stannous chloride (stannous chloride was made up directly before use at a concentration of 0.2 mg/ml). This solution was left for 1 min at room temperature. Then 0.5 ml was mixed with 200 μg MFE-cys in PBS/1 mM EDTA. The mixture was incubated at room temperature for 30 min and then applied to a PD 10 column (Pharmacia; primed with 3% human serum albumin in PBS) to separate the radiolabelled protein from the free pertechnetate. The efficiency of ^99m Tc uptake was tested by thin layer chromatography, using acetonitrile/water (30:20) as running solvent. An aliquot (100 μl) of diluted radiolabelled scFv (1:30 in PBS/Tween 20) was applied to a 1 ml CEA-sepharose column, containing 1 mg of CEA, to test CEA-binding. The column was washed with 8 volumes of PBS/0.05% Tween 20 and bound material was obtained by adding 3M ammoniumthiocyanate. Further, the stability of the labelled scFv was tested by applying the product (diluted 1:30) to Sephacryl S-100. To test the stability of the radiolabelled product in vivo serum taken from mice injected with the labelled scFv 24 h after administration was also applied to Sephacryl S-100. Stability of the ^99m Tc-labelled product was also tested by gel autoradiography as follows: radiolabelled MFE-cys was subjected to SDS-PAGE using a 15% non-reducing acrylamide gel. The protein was then Western blotted onto Immobilon P (Millipore), and visualised by autoradiography using Kodak X-Omatic cassette and Hyperfilm-MP film (Amersham).
Thin layer chromatography (TLC) was performed to measure % ^125 I incorporation. Antigen binding was also assessed by applying a dilution of the radiolabel to a CEA coupled Sepharose 4B (1 mg CEA; 1 ml column volume). The unbound fraction was washed through with 2 column volumes of PBS and the bound fraction with the same volume of 3M ammonium thiocyanate. A control scFv B1.8 which is not specific for CEA and MFE-23 containing a c-myc tag (MFE-23 myc) were tested as a comparison. The unbound and bound fractions were analysed for ^125 I activity using a gamma counter. Stability assessments were carried out by applying a sample of the radiolabel and unlabelled product to a 15% SDS PAGE minigel. The ^125 I-MFE-23 His was visualised by autoradiography and the unlabelled product by Coomassie blue staining. ^125 I-MFE-23 His was also applied to a 100 ml Sephacryl S-100 column (115×1 cm). 1.5 ml fractions were collected and counted for ^125 I activity.

[4] = Stability of radiolabelled product by gel filtration on S-100 / SDS PAGE; type: physicochemical; details: 125I label, SDS PAGE and gel filtration
[5] = Storage stability by FPLC (Superose 12); type: physicochemical; details: 4° C. and -70° C. up to 6 months
Method: as §1, with “The final product was also assayed for Cu^2+ content and compared with earlier purification stages, using flame photometry (Trace Element laboratory-University of Surrey). An aliquot was also protein sequenced using amino acid analysis by the CRC protein sequencing facility (University college of London) to confirm homogeneity of the final product and cleavage of the pelB leader sequence in the periplasm.” left out, “These values were compared by applying a known amount of MFE-23 His previously purified using the same column.” left out

B1: MFE-23 His: MFE-23 scFv with hexa-histidine tail at the C-terminus, clinical grade (protein)
scFv: QVKLQQSGAELVRSGTSVKLSCTASGFNIKDSYMHWLRQGPEQGLEWIGWIDPENGDTEYAPKFQGKATFTTDTSSNTAYLQLSSLTSEDTAVYYCNEGTPTGPYYFDYWGQGTTVTVSSGGGGSGGGGSGGGGSENVLTQSPAIMSASPGEKVTITCSASSSVSYMHWFQQKPGTSPKLWIYSTSNLASGVPARFSGSGSGTSYSLTISRMEAEDAATYYCQQRSSYPLTFGAGTKLELK
antigen binding retained after storage (CEA [1]; 6 months storage at 4° C.): 84%
Specific activity (% bound to CEA column) (CEA [1]; CEA antigen affinity chromatography purified (d), 1 mg applied to column): 89%
Specific activity (% bound to CEA column) (CEA [1]; IMAC purified (a), 2 mg applied to column, 6 months storage at 4° C.): 69%
Specific activity (% bound to CEA column) (CEA [1]; IMAC purified (b), 1 mg applied to column, 6 months storage at 4° C.): 75%
Specific activity (% bound to CEA column) (CEA [1]; IMAC purified (c), 0.5 mg applied to column, 6 months storage at 4° C.): 81%
mean % bound specific activity (CEA [1]; IMAC purified material (a-c)): 75%
pyrogenicity by in vivo rabbit testing [2]: non pyrogenic
counts in bound fraction of CEA column, % of total counts recovered (CEA [3]; 125I radiolabelled, Example 5): 75%
counts in unbound fraction of CEA column, % of total counts recovered (CEA [3]; 125I radiolabelled, Example 5): 25%
further counts recovered in bound fraction on reapplying the unbound fraction (CEA [3]; % of total counts loaded, unbound fraction reapplied to CEA column): 58%
antigen binding retained after radiolabelling (CEA [3]; after radiolabelling (125I)): > 75%
stability of radiolabelled product [4]: monomeric, intact and unaggregated
stability on storage, FPLC analysis [5]: no evidence of aggregation
